Some results are limits rather than exact numbers.

Holding throughout (test): cell-based or functional assay
The target of assay [1] is HIV-1 JR-CSF Env, wild type (pseudovirus) (HIV-1 JR-CSF) (UniProt P20871).
Assay [2] concerns the target HIV-1 Env of isolate MGRM-C-028 (subtype C), on pseudovirus (HIV-1).
Assay [3] deals with HIV-1 envelope glycoprotein (Env) of isolate APV_6, on pseudovirus (HIV-1).
Assay [4] has as its target HIV-1 envelope glycoprotein (Env) of isolate APV_17, on pseudovirus (HIV-1).
Assay [5] deals with HIV-1 envelope glycoprotein (Env) of isolate 6535.3, on pseudovirus (HIV-1).
Assay [6] concerns the target HIV-1 envelope glycoprotein (Env) of isolate MGRM-Chronic-B-002, on pseudovirus (HIV-1).
Assay [7] deals with HIV-1 envelope glycoprotein (Env) of isolate MGRM-Chronic-B-004, on pseudovirus (HIV-1).
Assay [8] addresses HIV-1 envelope glycoprotein (Env) of isolate MGRM-Chronic-B-010, on pseudovirus (HIV-1).
Assay [9] concerns the target HIV-1 Env of isolate 93RW029 (HIV-1).
The target of assay [10] is HIV-1 Env of isolate PVO.4 (subtype B) (HIV-1).
Assay [11] has as its target HIV-1 MGRM-C-026 Env (pseudovirus) (HIV-1).
Assay [12] deals with HIV-1 MGRM-D-001 Env (pseudovirus) (HIV-1).
Assay [13] concerns the target HIV-1 92RW020 Env (pseudovirus) (HIV-1).
Assay [14] addresses HIV-1 APV13 Env (pseudovirus) (HIV-1).
The target of assay [15] is HIV-1 94UG103 Env (pseudovirus) (HIV-1).
Assay [16] concerns the target HIV-1 APV6 Env (pseudovirus) (HIV-1).
Assay [17] deals with aMLV envelope on pseudovirus (negative control).
Assay [18] concerns the target HIV-1 JR-CSF Env P313A (HIV-1 JR-CSF) (UniProt P20871).
Assay [19] deals with HIV-1 JR-CSF Env H330A (HIV-1 isolate JR-CSF) (UniProt P20871).
Assay [20] addresses HIV-1 92BR020 envelope glycoprotein (Env) (HIV-1).
The target of assay [21] is HIV-1 JR-CSF Env P299A (HIV-1 JR-CSF) (UniProt P20871).
The target in assay [22] is HIV-1 JR-CSF Env K343A (HIV-1 isolate JR-CSF) (UniProt P20871).
In assay [23] the target is HIV-1 JR-CSF Env N411A (HIV-1 (isolate JR-CSF)) (UniProt P20871).
The target in assay [24] is HIV-1 JR-CSF Env D417A (HIV-1 (isolate JR-CSF)) (UniProt P20871).
Assay [25] deals with HIV-1 JR-CSF Env N332A (HIV-1 isolate JR-CSF) (UniProt P20871).
Assay [26] concerns the target HIV-1 JRFL envelope glycoprotein (Env) (HIV-1).
The target in assay [27] is HIV-1 JR-CSF Env T319A (HIV-1 isolate JR-CSF) (UniProt P20871).
The target in assay [28] is HIV-1 JR-CSF Env R304A (HIV-1 JR-CSF) (UniProt P20871).
Assay [29] deals with HIV-1 JR-CSF Env W395A (HIV-1 (isolate JR-CSF)) (UniProt P20871).
Assay [30] deals with HIV-1 JR-CSF Env S306A (HIV-1 JR-CSF) (UniProt P20871).
Assay [31] concerns the target HIV-1 JR-CSF Env F210A (HIV-1 JR-CSF) (UniProt P20871).
The target of assay [32] is HIV-1 JR-CSF Env D325A (HIV-1 isolate JR-CSF) (UniProt P20871).
In assay [33] the target is HIV-1 JR-CSF Env T394A (HIV-1 (isolate JR-CSF)) (UniProt P20871).
The target of assay [34] is HIV-1 JR-CSF Env S387A (HIV-1 (isolate JR-CSF)) (UniProt P20871).
Assay [35] has as its target HIV-1 JR-CSF Env S393A (HIV-1 (isolate JR-CSF)) (UniProt P20871).
Assay [36] has as its target HIV-1 JR-CSF Env S199A (HIV-1 JR-CSF) (UniProt P20871).
In assay [37] the target is HIV-1 JR-CSF Env S334A (HIV-1 isolate JR-CSF) (UniProt P20871).
The target of assay [38] is HIV-1 JR-CSF Env E321aA (HIV-1 isolate JR-CSF) (UniProt P20871).
For assay [39], the target named is HIV-1 JR-CSF Env T303A (HIV-1 JR-CSF) (UniProt P20871).

Regarding 1443_C16 (PG16) (TCN-116) (antibody), the IC50 (ug/ml), neutralization in assay [1] was 0.001 µg/mL.
As to 1496_C09 (PG9) (TCN-109) (antibody), the IC50 (µg/mL), pseudovirus neutralization in assay [2] was 0.067 µg/mL; in assay [10], 24.8 µg/mL. For the same substance, the IC50, pseudovirus neutralization stood at 0.181 µg/mL in [3]; 34.8 µg/mL in [4]; 1.05 µg/mL in assay [5]; 3.44 µg/mL in [6]; 0.533 µg/mL in assay [7]; 0.004 µg/mL in [8]. For the same substance, in assay [1], the IC50 (ug/ml), neutralization came to 0.006 µg/mL. In assay [9], this substance had an IC50 of 0.69 µg/mL.
For the substance 4838_L06 (PGT-121) (antibody), the neutralization IC95 was determined as 0.0687 µg/mL in [11]; 9.39 µg/mL in assay [12]; 0.0671 µg/mL in [13]; 5.15 µg/mL in assay [14]; 0.569 µg/mL in [16]. Also, the neutralization IC80 in assay [12] is 3.29 µg/mL; in [13], 0.0188 µg/mL; in assay [14], 1.31 µg/mL; in [15], 8.85 µg/mL; in [16], 0.145 µg/mL. For the same substance, the neutralization IC90 amounted to 6.26 µg/mL in [12], 0.0361 µg/mL in assay [13] and 2.8 µg/mL in assay [14].
In assay [17], 4858_P08 (PGT-123) (antibody) had an IC50, pseudovirus neutralization above 10 µg/mL; an IC80, pseudovirus neutralization above 10 µg/mL; an IC90 (pseudovirus neutralization) above 10 µg/mL; an IC95, pseudovirus neutralization above 10 µg/mL.
In [17], 5123_A06 (PGT-125) (antibody) had a neutralization IC50 above 10 µg/mL, a neutralization IC80 above 10 µg/mL, a neutralization IC90 above 10 µg/mL and a neutralization IC95 above 10 µg/mL.
5141_B17 (PGT-126) (antibody): the IC50 came to 0.0076 µg/mL in [11]; 0.0639 µg/mL in assay [12]; 0.0046 µg/mL in assay [13]; 0.012 µg/mL in assay [14]; 0.0091 µg/mL in assay [15]; 0.0249 µg/mL in assay [16]. Besides, the IC80 in [11] amounted to 0.0345 µg/mL; in [12], 0.333 µg/mL; in [13] it was 0.0168 µg/mL; in [14] it was 0.0411 µg/mL; in assay [15] it was 0.0316 µg/mL; in assay [16], 0.0681 µg/mL. Besides, the IC90 was determined as 0.0831 µg/mL in assay [11]; 0.832 µg/mL in assay [12]; 0.0359 µg/mL in assay [13]; 0.084 µg/mL in assay [14]; 0.0655 µg/mL in [15]; 0.123 µg/mL in assay [16]. Moreover, the IC95 stood at 0.185 µg/mL in assay [11]; 1.8 µg/mL in assay [12]; 0.0728 µg/mL in [13]; 0.162 µg/mL in assay [14]; 0.128 µg/mL in assay [15]; 0.213 µg/mL in assay [16].
Take PGT-121 (antibody): the Fold IC50 increase relative to wild-type was determined as 0.5 fold in [18]; 0.8 fold in [19]; 0.2 fold in assay [21]; 0.6 fold in assay [22]; 0.4 fold in assay [23]; 0.7 fold in assay [24]. The Fold IC50 increase relative to wild-type was above 200 fold in assay [25]; 1.3 fold in assay [27]; 1.7 fold in assay [28]; 0.5 fold in assay [29]; 0.7 fold in assay [30]; 1.5 fold in assay [31]. In addition, the Fold IC50 increase relative to wild-type was 2 fold in assay [32]; 0.2 fold in [33]; 0.5 fold in assay [34]; 0.6 fold in assay [35]; 0.8 fold in assay [36]; above 50 fold in assay [37]. Also, the Fold IC50 increase relative to wild-type is 0.3 fold in assay [38] and 0.7 fold in [39]. The IC50 neutralization in assay [20] was 0.0177 µg/mL; in assay [26], 0.0276 µg/mL.
In the case of PGT-122 (antibody), the Fold IC50 increase relative to wild-type in [18] amounted to 0.4 fold; in [19] it was 0.5 fold; in assay [21], 0.5 fold; in assay [22], 0.3 fold; in assay [23] it was 0.7 fold; in [24], 0.5 fold. In addition, the Fold IC50 increase relative to wild-type in assay [25] was above 200 fold; in assay [27], 0.5 fold; in assay [28], 0.7 fold; in assay [29] it was 0.4 fold; in [30], 0.5 fold; in assay [31], 2.6 fold. The Fold IC50 increase relative to wild-type was 44 fold in [32]; 0.6 fold in assay [33]; 0.9 fold in assay [34]; 0.5 fold in assay [35]; 1 fold in assay [36]; above 50 fold in assay [37]. The Fold IC50 increase relative to wild-type in [38] came out at 0.4 fold; in [39] it was 2.5 fold. For the same substance, the IC50 neutralization in assay [20] came to 0.0337 µg/mL; in [26], 0.0471 µg/mL.
As for PGV04 (antibody), the IC50 (µg/mL), pseudovirus neutralization in assay [2] stood at 0.149 µg/mL; in assay [10], 0.454 µg/mL. For the same substance, the IC50, pseudovirus neutralization stood at 24.2 µg/mL in [3]; 0.309 µg/mL in assay [4]; 0.757 µg/mL in assay [5]; 0.142 µg/mL in assay [6]; 0.047 µg/mL in assay [7]; 0.744 µg/mL in assay [8]. Moreover, the IC50 in assay [9] came out at 0.54 µg/mL.
